Data: the supplement of paper PMC9170038

System: MS2 coat protein
Experiment: apparent KD of MS2 coat protein; designed switch direction (-1 OFF switch, 1 ON switch): -1; higher = weaker reporter binding
Method in brief: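 Designed RNA switches with common flanks were made on Illumina chips by stalled E. coli RNA polymerase. Titration with SNAP-549-labelled MS2 coat protein doubled from 0.7 or 1.5 nM up to 3 µM. Apparent KD is each design's median over clusters after curve-fitting normalised fluorescence.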

[1] = input ligand: microRNA oligo, concentration not stated
[2] = Eterna round: R95, input ligand: FMN 200 uM
[3] = Eterna round: R95, input ligand: microRNA oligo, concentration not stated
[4] = Eterna round: R95, input ligand: none

| Sequence | apparent KD of MS2 coat protein (input ligand: FMN 200 uM) [nM] | apparent KD of MS2 coat protein [1] [nM] | apparent KD of MS2 coat protein (input ligand: none) [nM] | apparent KD of MS2 coat protein [2] [nM] | apparent KD of MS2 coat protein [3] [nM] | apparent KD of MS2 coat protein [4] [nM] |
| --- | --- | --- | --- | --- | --- | --- |
| ACAAGCAAGACAGGAUAUACGAAGCACGUUGUGGUCUGUGACAUGAGGAUCACCCAUGUGUGAGAGUAGAAGGGUUUUGAUCCC [Edarenraat] (Eterna round: R96, puzzle: Exclusion NG 2) | 1140 | 685 | 828 | – | – | – |
| AUCGUGCAGCAAAGCUGUACGAGUACAUGAGGAUCACCCAUGUAGGAUAUGGUACGCAAAGCGUGCUAGAAGGAUAUGUGUAAG [Mat - Exclusion NG 3 - Mod of JL - D85] (Eterna round: R96, puzzle: Exclusion NG 3) | 65.5 | 39.9 | 61.6 | – | – | – |
| GAUCGCAUAGUCAGGAUAUCGAAGUAUCGGGACCGCGAGAAGGGACAUGAGGAUCACCCAUGUUUCAUGGGAAG [Riesaratce] (Eterna round: R97, puzzle: Brourd's mod of Exclusion 4) | 182 | – | 113 | – | – | – |
| AAUAAACAUGAGGAUCACCCAUGUGAGGAUAUGCAAAUAAAUAAUAAAAUAAAUAAAAGCAGAAGGCACAAUAA [JMF most obvious solution 1] (puzzle: Exclusion 1) | – | – | – | 31.5 | 35 | 30.9 |
| UCUAGACAUGAGGAUCACCCAUGUGAGGAUAUGAUGCGAUCGUCGAAAGACGAUAGCAUCAGAAGGCACAAAUG [Fiskers Ex 1 - 12] (Eterna round: R96, puzzle: Exclusion 1) | 200 | 53.6 | 72.3 | – | – | – |
| AUUAAGCAGCAGGAUAUAAGUAUCUAAAGGUGGUUAGAAGGGCUGACAUGAGGAUCACCCAUGUGCUCUUCGUG [Reusat] (puzzle: Exclusion 6) | – | – | – | – | 13.3 | – |
| CAUACUGAAGUUAGGAUAUUCGGCCGAAUACGGAUGGAGAAGGGACAUGAGGAUCACCCAUGUAGAUAGUAAAG [EX-4 Malc #14] (puzzle: Brourd's mod of Exclusion 4) | – | – | – | 26.1 | 21.7 | 27.6 |
| GAAAAGGUAGGAUAUACGAAAAAAAAGGGUAGAAAAAGAACACAUGAGGAUCACCCAUGUAGAAGGACCAAAAG [salish99_ex2_r3_020] (puzzle: Exclusion 2) | – | – | – | 72.8 | 20.9 | 20.3 |
| AAUUAUUGAUGAGGAUAUUGUGGUGAAACACGACGAGAAGGCAUUUGUCACAUGAGGAUCACCCAUGUGAGCCUUGUGCAUAUA [Ex NG1 #63] (Eterna round: R96, puzzle: Exclusion NG 1) | 25.2 | 18.7 | 15.1 | – | – | – |
| GGUGAGAGCAAGGAUAUGCAGAAGAGAGAAAGAGCAGAAGGUGCUACAUGAGGAUCACCCAUGUAGGAUGUGUU [JR_E6_Sub013] (puzzle: Exclusion 6) | – | – | – | 15.2 | 13.4 | 13.4 |
| UUUUCUCACGUCAGGAUAUGCUAAAAGGUGACAAGGUAGAAGGGACAUGAGGAUCACCCAUGUGCUUUCAUGAG [Eternabot (L2) Solution 41] (Eterna round: R97, puzzle: Brourd's mod of Exclusion 4) | 15.2 | – | 13.8 | – | – | – |
| ACAUGAGGAUCACCCAUGUAAUGAUGGGUACUAUAUUAUUCGUAGGAUAUCGUUGUUAGUUUGUUCGAGAAGGACGAUUGCCUU [JR_ExcNG3_Sub054] (Eterna round: R96, puzzle: Exclusion NG 3) | 612 | 385 | 520 | – | – | – |
| AGUAGGUCUACCUUGGUGGAUCUGCAUUAUGCAAGUGAUACAUGAGGAUCACCCAUGUCCUCAUUUGCUCGUCUUAU [JL turnoff v2 99.24] (puzzle: Sensor v3, turn-off variant 2) | – | – | – | 17.3 | 242 | 16.1 |
| AAUAACAGAGGAUAUACUGUUUUAUGUAUUUAUUAUUUUAAACAUGAGGAUCACCCAUGUAGAAGGCUGAUUAA [JMF 43] (puzzle: Exclusion 2) | – | – | – | – | 27.4 | – |
| GGGCCCGGAGGAUAUACAUGAGGAUCACCCAUGUAGCGCGCGCGUAUUUGUGUGUGUUGUAGAAGGCCGGGCCC [-36.6, -33.8 kcal, A 19%, 6-0] (Eterna round: R97, puzzle: Exclusion 3) | 57.9 | – | 17.9 | – | – | – |
| ACGCGUUUAGGAUAUACGUGCCUUGACAGUCCUAUUGUGUUACAUGAGGAUCACCCAUGUAGAAGGAGGCCGCG [Eternabot (L1) Solution 79] (Eterna round: R97, puzzle: Exclusion 2) | 19.4 | – | 20.2 | – | – | – |
| GGCCCUAAGGUCAGAUCCACAAGCUUUUUGCUCGUUUUAACAUGAGGAUCACCCAUGUCUAGUGGAUUUGAUCCUCA [Sensor v3, turn-off variant 2 (MOD of Indiso v.5)] (puzzle: Sensor v3, turn-off variant 2) | – | – | – | 36.2 | 14.5 | 41.3 |

| Sequence | apparent KD of MS2 coat protein (input ligand: FMN 200 uM) [nM] | apparent KD of MS2 coat protein [1] [nM] | apparent KD of MS2 coat protein (input ligand: none) [nM] | apparent KD of MS2 coat protein [2] [nM] | apparent KD of MS2 coat protein [3] [nM] | apparent KD of MS2 coat protein [4] [nM] |
| --- | --- | --- | --- | --- | --- | --- |
| UAAAGACAUGAGGAUCACCCAUGUAAGGAUAUCGCCUGCGGUGGCGCCAGCCAUUAGGCGAGAAGGUGCGGUGA [Eternabot (L1) Solution 14] (Eterna round: R97, puzzle: Exclusion 1) | 326 | – | 417 | – | – | – |
| GUUUUCAGACGGAGAUCCUACAUGAGGAUCACCCAUGUCUCACAAGCUUUUUGCUCGUCUUAUACUCCUCUGUUCUC [Elimod 42 - Jieux - Sensor, turn-off variant 1] (Eterna round: R97, puzzle: Sensor, turn-off variant 1) | 83.5 | – | 106 | – | – | – |
| GGUGCGUAUGUGAGGAUAUGCUGGUCCUUGGCUCGGCAGAAGGCACAUGAGGAUCACCCAUGUGGUGUCGUGCC [salish99_Bmod_ex4_056] (Eterna round: R96, puzzle: Brourd's mod of Exclusion 4) | 46 | 14.9 | 19.8 | – | – | – |
| AAGUGUGCCUAGGAUAUGUUCGGCCAAGGUCAUACAGAAGGAGGCACAUGAGGAUCACCCAUGUAGUGUCCAAC [Orririvebe] (puzzle: Exclusion 6) | – | – | – | – | 88.1 | – |
| ACUAGAUGAGGAUAUACACAUUUUAGUGUUCCUCUAGAUUAACAUGAGGAUCACCCAUGUAGAAGGCAUCAUUU [Exclusion 2 - 10] (puzzle: Exclusion 2) | – | – | – | – | 80.8 | – |
| GCCUCACUUGAGGAUCACCCAAGUCAGGAUAUAUCACUAGCGUGGAAACCACGCUGGCAUAGAAGGGACAAAGA [Ergeeddi] (Eterna round: R97, puzzle: Exclusion 1) | 27.1 | – | 17.3 | – | – | – |
| GGUUGGCGAGGAUAUACAUGAGGAUCACCCAUGUGAGAGAAAAAAGCGAGGAAGAAAAGUAGAAGGCGCUGACG [salish99_ex3_r3_027] (puzzle: Exclusion 3) | – | – | – | 137 | 43 | 56 |
| UUCCUACAUGAGGAUCACCCAUGUCAGGAUAUAUAAAACGCUCUGGUAAUAGAGCAAGAUAGAAGGGAUUGGGA [Beeratve] (Eterna round: R97, puzzle: Exclusion 1) | 14.6 | – | 13.3 | – | – | – |
| UAGAAGGUAGGAUAUACGAAUAAAUAGGGUAGUAAGAAUACACAUGAGGAUCACCCAUGUAGAAGGACCAAGAU [Mat - Exclusion 2 - Mod of my Tesla design - D32] (puzzle: Exclusion 2) | – | – | – | 43.1 | 19.5 | 20.9 |
| AAUAACAGAGGAUAUACGAAAAUAAGCGGAAACGCAAAGGGACAUGAGGAUCACCCAUGUAGAAGGCUGGAUAA [Tetraloop... 61% 2] (Eterna round: R96, puzzle: Exclusion 2) | 204 | 19.6 | 34.2 | – | – | – |
| CAGUACUGAGGAUAUACAUGAGGAUCACCCAUGUAUCCAAGCUAGGAAACUAGCAAAUGUAGAAGGCAGUACUG [Ex3: 821] (Eterna round: R96, puzzle: Exclusion 3) | – | 30.9 | – | – | – | – |
| AUCAGCUCGUGAGGAUAUACAUGCGUGCUUCGGCACGUAUGAUAGAUCACAUGAGGAUCACCCAUGUAGAAGGUACGAGCUGAU [ENG2/4-C3] (Eterna round: R96, puzzle: Exclusion NG 2) | 12.6 | 10.7 | 12.6 | – | – | – |
| UACACUGCAUGAGGAUCAAACAUGAGGAUCACCCAUGUAUUGCAAGCUUUUUGCACGUCUUAUAAUUAUGUAGUGUA [Electric Eye 20 - Jieux - Sensor, turn-off variant 1] (Eterna round: R97, puzzle: Sensor, turn-off variant 1) | 17.2 | – | 17.2 | – | – | – |
| UACAUGAGGAUCACCCAUGUUUUGUCGUGUAUGGUAUUUAUCUAGGAUAUCAAUUAAUUUAUUUAUGAGAAGGAGAAUAUUAAU [JMF's solution 14] (Eterna round: R96, puzzle: Exclusion NG 3) | 40.3 | 28.1 | 38.3 | – | – | – |
| UUGUAGCAGGCCUUCGAGUACAUGAGGAUCACCCAUGUCGUGCCUGAAAUCUCAGAGACAGGUGGCUCGUCUUAGGC [Eternabot (L1) Solution 32] (Eterna round: R97, puzzle: Sensor, turn-off variant 1) | 21.2 | – | 16.9 | – | – | – |
| UUCCUCGUUGUGAGGAUAUCGUCCGGGUUUUGUUACGAGAAGGCACAUGAGGAUCACCCAUGUUACUUGAUGUU [JR_BMOE4_Sub072] (puzzle: Brourd's mod of Exclusion 4) | – | – | – | – | 20 | – |
